# Paper PMC11607428, “Broadly conserved FlgV controls flagellar assembly and Borrelia burgdorferi dissemination in mice” (Nature Communications, 2024)
# Biological target: the molecule itself
# Assay: immunoblot after SDS-PAGE (higher molecular weight band); total protein lysate of WT/pcon ++flgV (PA267) B. burgdorferi, log and stationary phase, boiled in Laemmli buffer with beta-mercaptoethanol, Tris-Glycine gel, probed with anti-FlgV
protein,measurement,value
"FlgV (BB0268), B. burgdorferi (natural protein, FlgV (BB0268) of Borrelia burgdorferi B31; ORF of 480 bp; antigen for the antibody was amino acids 58-159; two predicted transmembrane helices (amino acids 13 to 35 and 40 to 57); native flgV ORF amplified from B. burgdorferi A3 genomic DNA for the overexpression plasmid; Untagged protein; Strains, plasmids and primers are in Supplementary Data 1; also called bb0268 gene product; previously …) MFISRELKYILLTSVSALFISAVLGLFCGLSFFTILVRSLLQFVFFFVIGLLIEYIFKKYLSNLFSTELSGNMENKPQDDKKSDKDFKENLDFQNKNSLYENSQNISSSGDFIEEVKKYKFETEDVSRGSDKNKKMSFIEDNDPKVVADAIKTLMSKKE",stoichiometry N,2
